Data taken from the RNAGym collection of RNA variant scans (doi:10.1073/pnas.2313332121).

B1: TPR t1 (parent)
chain: GACCAAUCUGCCCUCAGAGCUCGAGAACAUCUUCGGAUGCAGAGGAGGCAGGCUUCGGUGGCGCGAUAGCGCCAACGUCCUCAACCUCCAAUGCAUCCCACCACAUGAUGAUGCCUGAAGAGCCUUGGUUUUUUG

Variants of: B1
Assay: polymerase ribozyme fitness, log enrichment relative to wild type (log ratio); higher = more active; in vitro selection for triplet polymerase activity
Method in brief: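 Fitness is a logarithmic measure of how a genotype enriched relative to the wild type, with replicate averages weighted by inverse variance. The logarithm uses base 2, and enrichment came from Illumina sequencing of input and output libraries. Those libraries were PCR-built, transcribed mutants of each subunit of a heterodimeric triplet polymerase ribozyme, passed through one triplicate in vitro selection round that included frozen incubation at −7 °C, gel excision of extended constructs and streptavidin-bead capture. Genotypes were kept only if they had ≥10 input reads and ≥1 read per output.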

Going from C73U G117A to A50U G113A, the “polymerase ribozyme fitness (log ratio)” value falls from 0.149 to -2.01.

Going from G10A C20A U87A C124U to U38G G69A U112A, the “polymerase ribozyme fitness (log ratio)” value falls from -0.469 to -4.05.

Compared with U7C C8G C79A G110A, G47U C53G C62A is higher in “polymerase ribozyme fitness (log ratio)” value: -2.4 for the first, -2.11 for the second.

Going from C20G A90C A95U to C53U U67G C124G, the “polymerase ribozyme fitness (log ratio)” value falls from -4.06 to -7.17.

Compared with A16U C56A, G48U U55G G69C G93U is lower in “polymerase ribozyme fitness (log ratio)” value: -1.97 for the first, -2.93 for the second.

Going from C3G C102U C123A to C34U C72U U106A, the “polymerase ribozyme fitness (log ratio)” value falls from -2.99 to -4.34.

Going from G47U C104A U129A to C20A G71A U129G, the “polymerase ribozyme fitness (log ratio)” value rises from -5.96 to -5.06.

Compared with G69A G117A, C34A G48C G77A is higher in “polymerase ribozyme fitness (log ratio)” value: -3.78 for the first, -2.78 for the second.

First: U78C G110C
Second: C11G G44C A66G A83G C114A U133A
The “polymerase ribozyme fitness (log ratio)” value of the first is higher: -3.67 for the first, -5.39 for the second.

First: C40G G77U C101G U112A
Second: A5U G45U A46C
The “polymerase ribozyme fitness (log ratio)” value of the first is higher: -1.23 for the first, -1.71 for the second.

Compared with C86A U96C, C85A G122A is lower in “polymerase ribozyme fitness (log ratio)” value: -0.678 for the first, -1.14 for the second.

First: A50U U59G U112G
Second: C31G C94G G113A
The “polymerase ribozyme fitness (log ratio)” value of the first is higher: -0.842 for the first, -5.38 for the second.

Compared with C15U C73U A83G, U59G C89A A121G is higher in “polymerase ribozyme fitness (log ratio)” value: -2.56 for the first, 0.508 for the second.

First: G71C U87A C123A
Second: C53U C99G A119G
The “polymerase ribozyme fitness (log ratio)” value of the first is higher: -2.66 for the first, -7.41 for the second.

Compared with A100U U129A, U9C C53U A83C is higher in “polymerase ribozyme fitness (log ratio)” value: -0.992 for the first, 0.688 for the second.

Going from G60A C85A to G10C G45U G47U C73A G117A A119U, the “polymerase ribozyme fitness (log ratio)” value falls from -1.07 to -5.46.

First: C11G G60A C70U
Second: A6C G10C G36U
The “polymerase ribozyme fitness (log ratio)” value of the first is higher: -0.917 for the first, -2.24 for the second.

Compared with G42C G57A C64A C85A G113U, A5U U54C G69A U112C is higher in “polymerase ribozyme fitness (log ratio)” value: -7.14 for the first, -0.469 for the second.

First: C114A G128C
Second: C11G A68U
The “polymerase ribozyme fitness (log ratio)” value of the first is higher: -3.78 for the first, -4.49 for the second.

Compared with G63U A84C U130A, G93A C114A G122A U131A is lower in “polymerase ribozyme fitness (log ratio)” value: -2.23 for the first, -3.27 for the second.

Compared with C49A U81C, C11U G60A G61U U78C C86G is lower in “polymerase ribozyme fitness (log ratio)” value: -2.67 for the first, -4.45 for the second.

Compared with U9A C15A G45C A108G, G39A C40A G45U is lower in “polymerase ribozyme fitness (log ratio)” value: -4.55 for the first, -4.88 for the second.

First: C22U A90U U112G
Second: A29U G42C G69U A119U
The “polymerase ribozyme fitness (log ratio)” value of the first is lower: -7.35 for the first, -2.46 for the second.

Compared with A5U C13U A37U G44C U78G C98U, U38G U87A A95C is higher in “polymerase ribozyme fitness (log ratio)” value: -4.45 for the first, -1.01 for the second.

First: G10U C13U G60C G107A U112C G127U
Second: C13U A37C U55A
The “polymerase ribozyme fitness (log ratio)” value of the first is lower: -4.55 for the first, -0.3 for the second.

First: G10A U33G
Second: G45A U87C C97A
The “polymerase ribozyme fitness (log ratio)” value of the first is lower: -4.61 for the first, -3.81 for the second.

First: C11U C114U
Second: G60A A108G G117A
The “polymerase ribozyme fitness (log ratio)” value of the first is higher: -1.57 for the first, -3.74 for the second.

Compared with A16U G69U G71U G117C, G42A C53U C64U U106A A119G is higher in “polymerase ribozyme fitness (log ratio)” value: -4.04 for the first, -1.87 for the second.

Compared with C12A C15U U21A G39A, G47U A95U is lower in “polymerase ribozyme fitness (log ratio)” value: -1.06 for the first, -1.91 for the second.

First: G69C C94A U112G C124G
Second: G48C C49A C88U A95G
The “polymerase ribozyme fitness (log ratio)” value of the first is lower: -1.99 for the first, -0.72 for the second.

Going from U9G G60U C62U to C53A G127U U129A, the “polymerase ribozyme fitness (log ratio)” value rises from -1.11 to -0.623.

First: A37U C104U U116C
Second: U9G C115G
The “polymerase ribozyme fitness (log ratio)” value of the first is lower: -0.911 for the first, 1.35 for the second.

Compared with G61A U109C, G10A C11A C15A is lower in “polymerase ribozyme fitness (log ratio)” value: -2.02 for the first, -4.29 for the second.

Compared with A2C U59G, C101A G117U G122A U125A is lower in “polymerase ribozyme fitness (log ratio)” value: -1.54 for the first, -4.5 for the second.

Going from A5C C98U U112A G128C to U78C U112A C114G, the “polymerase ribozyme fitness (log ratio)” value rises from -4.48 to -0.26.

Going from A46G C53U G113A to C12U A37U A111G C123A, the “polymerase ribozyme fitness (log ratio)” value rises from -2.14 to -0.195.

Going from C15A G60U to C13G C20U, the “polymerase ribozyme fitness (log ratio)” value falls from -2.01 to -2.34.

Going from C53A G71C C85A G117A U125G to C12U C124G, the “polymerase ribozyme fitness (log ratio)” value rises from -5.65 to 2.23.

Going from G17U G63U C73U to C62A A105G, the “polymerase ribozyme fitness (log ratio)” value rises from -4.41 to -4.17.

Going from C15A G52U to C8A A18C G60U, the “polymerase ribozyme fitness (log ratio)” value rises from -3.6 to -1.62.

Going from A27U A118G to C4A C98U, the “polymerase ribozyme fitness (log ratio)” value rises from -3.19 to -2.2.

Going from G48A C89U C124U to A27G C56A C72U G120U, the “polymerase ribozyme fitness (log ratio)” value falls from 0.551 to -2.12.
